Experimental data: article PMC5091765

Columns and labels:
[1] = target: bovine TGF-β RI extracellular domain fused to the human IgG1 Fc domain (bovine) (UniProt O46680); experiment: ELISA; competition: FhTLM coated at 400 ng/mL; increasing concentrations of TGF-β incubated with the Receptor-Fc fusion in solution at 37°C for 1 hr, then added to the plate
[2] = target: bovine TGF-β RII extracellular domain fused to the human IgG1 Fc domain (bovine); experiment: as above
[3] = target: bovine TGF-β RI extracellular domain fused to the human IgG1 Fc domain (bovine) (UniProt O46680)
[4] = target: bovine TGF-β RII extracellular domain fused to the human IgG1 Fc domain (bovine)
[5] = target: bovine TGF-β RI extracellular domain fused to the human IgG1 Fc domain (bovine) (UniProt O46680); experiment: ELISA; competition: TGF-β coated at 400 ng/mL; increasing concentrations of FhTLM incubated with the Receptor-Fc fusion in solution at 37°C for 1 hr, then added to the plate
[6] = target: bovine TGF-β RII extracellular domain fused to the human IgG1 Fc domain (bovine); experiment: as above

Chain of bovine TGF-β RI extracellular domain fused to the human IgG1 Fc domain (bovine) (O46680 30-122): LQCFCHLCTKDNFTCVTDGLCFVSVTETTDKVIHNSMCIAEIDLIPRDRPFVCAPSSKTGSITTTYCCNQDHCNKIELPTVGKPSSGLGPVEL

percent reduction of the binding of TGF-β RI-Fc (printed as TGF-β RII-Fc a second time) to immobilised FhTLM [1] [%]	percent reduction of the binding of TGF-β RII-Fc to immobilised FhTLM [2] [%]	Substance	percent of primary bovine PBMCs positive for pSmad2/3 co-localised with the nucleus, 3 to 4 hrs with FhTLM [3]	percent of primary bovine PBMCs positive for pSmad2/3 co-localised with the nucleus, 3 to 4 hrs with FhTLM [4]	percent reduction of the binding of TGF-β RI-Fc to immobilised TGF-β1 [5] [%]	percent reduction of the binding of TGF-β RII-Fc to immobilised TGF-β1 [6] [%]
22	50	human TGF-β1 (ligand)				
		F. hepatica TGF-like molecule, FhTLM (recombinant) (ligand)	15.8 % of cells	15.8 % of cells	42	46
